Experiments:
M30A (human) = M30A (human) (UniProt Q9Y286); assay: flow cytometry on HEK-293T cells expressing the mutant; mean % of wild-type signal (range of duplicates)
T103A (human) = T103A (human) (UniProt Q9Y286); assay: as above
F48A (human) = F48A (human) (UniProt Q9Y286); assay: as above
V44A (human) = V44A (human) (UniProt Q9Y286); assay: as above
Y50A (human) = Y50A (human) (UniProt Q9Y286); assay: as above
T107A [1] = molecular target: T1, T107A (human, UniProt Q9Y286); assay: flow cytometry on HEK-293T cells expressing the mutant, mock signal subtracted
T1 construct: clone of the siglec-7 mutation library; also called Siglec-7 T107A
T1 sequence (Q9Y286 19-467 T107A limits assumed): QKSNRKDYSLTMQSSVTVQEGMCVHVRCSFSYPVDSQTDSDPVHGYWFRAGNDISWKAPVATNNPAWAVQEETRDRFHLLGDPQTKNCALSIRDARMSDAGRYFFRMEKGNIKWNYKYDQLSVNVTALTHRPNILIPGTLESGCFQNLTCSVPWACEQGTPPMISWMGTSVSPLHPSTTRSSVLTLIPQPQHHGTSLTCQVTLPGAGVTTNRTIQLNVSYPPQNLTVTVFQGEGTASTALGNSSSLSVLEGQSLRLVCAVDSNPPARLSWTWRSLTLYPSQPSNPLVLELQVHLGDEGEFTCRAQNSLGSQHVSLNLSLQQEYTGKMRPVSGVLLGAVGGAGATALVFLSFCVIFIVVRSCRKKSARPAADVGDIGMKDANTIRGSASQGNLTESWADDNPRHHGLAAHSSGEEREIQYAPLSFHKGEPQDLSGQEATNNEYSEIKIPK
Experimental: (§1) Shotgun mutagenesis epitope mapping of anti-siglec-7 antibodies was performed using an alanine-scanning library for the siglec-7 protein. […] Each of residues 19 to 353 was mutated, representing the siglec-7 extracellular domain, most to alanine, while alanine codons were mutated to serine. In total, 335 siglec-7 mutant expression constructs were generated, sequences confirmed, and arrayed into a 384-well plate, one mutant per well.
Cells were then incubated with MAbs diluted in 10% o normal goat serum (NGS) (Sigma-Aldrich, St. Louis, Mo.). Prior to library screening, primary MAb concentrations were determined using an independent immunofluorescence titration curve against cells expressing wild-type siglec-7 to ensure that signals were within the linear range of detection. MAbs were detected using 3.75 μg/ml AlexaFluor488-conjugated secondary antibody (Jackson immunoResearch Laboratories, Westgrove, Pa.) in 10% NGS. […] Mean cellular fluorescence was detected using the Intellicyt high throughput flow cytometer (HTFC, Intellicyt, Albuquerque, N. Mex.). MAb reactivities against each mutant clone were calculated relative to wild-type siglec-7 protein reactivity by subtracting the signal from mock-transfected controls, and normalizing to the signal from wild-type siglec-7-transfected controls.

N81A = molecular target: T2, N81A (human, UniProt Q9Y286); assay: flow cytometry on HEK-293T cells expressing the mutant; mean % of wild-type signal (range of duplicates)
T2 construct: clone of the siglec-7 mutation library; also called Siglec-7 N81A
T2 sequence (Q9Y286 19-467 N81A limits assumed): as the sequence (Q9Y286 19-467 T107A limits assumed) above, with N63A, A89T counted along it
Experimental: as §1
(§2) Cells were then incubated with MAbs diluted in 10% o normal goat serum (NGS) (Sigma-Aldrich, St. Louis, Mo.). Prior to library screening, primary MAb concentrations were determined using an independent immunofluorescence titration curve against cells expressing wild-type siglec-7 to ensure that signals were within the linear range of detection. MAbs were detected using 3.75 μg/ml AlexaFluor488-conjugated secondary antibody (Jackson immunoResearch Laboratories, Westgrove, Pa.) in 10% NGS. Cells were washed twice with PBS−/− and resuspended in Cellstripper (Cellgro, Manassas, Va.) with 0.1% BSA (Sigma-Aldrich, St. Louis, Mo.). Mean cellular fluorescence was detected using the Intellicyt high throughput flow cytometer (HTFC, Intellicyt, Albuquerque, N. Mex.). MAb reactivities against each mutant clone were calculated relative to wild-type siglec-7 protein reactivity by subtracting the signal from mock-transfected controls, and normalizing to the signal from wild-type siglec-7-transfected controls.

R124A = molecular target: T3, R124A (human, UniProt Q9Y286); assay: as above
T3 construct: clone of the siglec-7 mutation library; also called Siglec-7 R124A
T3 sequence (Q9Y286 19-467 R124A limits assumed): as the sequence (Q9Y286 19-467 T107A limits assumed) above, with A89T, R106A counted along it
Experimental: as §1, §2

S47A = molecular target: T4, S47A (human, UniProt Q9Y286); assay: as above
T4 construct: clone of the siglec-7 mutation library; also called Siglec-7 S47A
T4 sequence (Q9Y286 19-467 S47A limits assumed): as the sequence (Q9Y286 19-467 T107A limits assumed) above, with S29A, A89T counted along it
Experimental: as §1, §2

I72A = molecular target: T5, I72A (human, UniProt Q9Y286); assay: as above
T5 construct: clone of the siglec-7 mutation library; also called Siglec-7 I72A
T5 sequence (Q9Y286 19-467 I72A limits assumed): as the sequence (Q9Y286 19-467 T107A limits assumed) above, with I54A, A89T counted along it
Experimental: as §1, §2

R45A = molecular target: T6, R45A (human, UniProt Q9Y286); assay: as above
T6 construct: clone of the siglec-7 mutation library; also called Siglec-7 R45A
T6 sequence (Q9Y286 19-467 R45A limits assumed): as the sequence (Q9Y286 19-467 T107A limits assumed) above, with R27A, A89T counted along it
Experimental: as §1, §2

Q31A = molecular target: T7, Q31A (human, UniProt Q9Y286); assay: as above
T7 construct: clone of the siglec-7 mutation library; also called Siglec-7 Q31A
T7 sequence (Q9Y286 19-467 Q31A limits assumed): as the sequence (Q9Y286 19-467 T107A limits assumed) above, with Q13A, A89T counted along it
Experimental: as §1, §2

W74A = molecular target: T8, W74A (human, UniProt Q9Y286); assay: as above
T8 construct: clone of the siglec-7 mutation library; also called Siglec-7 W74A
T8 sequence (Q9Y286 19-467 W74A limits assumed): as the sequence (Q9Y286 19-467 T107A limits assumed) above, with W56A, A89T counted along it
Experimental: as §1, §2

T107A [2] = molecular target: T1, T107A; assay: as above
Experimental: as §1, §2

[3] = molecular target: T9, human Siglec-7 expressed on human cells (primary monocytes, dendritic cells, macrophages, NK cells, … (human, UniProt Q9Y286 19-467)); assay: FACS, human primary dendritic cells, 10 ug/ml mAb
T9 construct: Endogenous receptor on cells; also called Siglec-7 receptor
T9 sequence (Q9Y286 19-467): as the sequence (Q9Y286 19-467 T107A limits assumed) above, with A89T counted along it
Experimental: (§3) Initial characterization of Siglec-7 antibodies involved determining their ability to bind Siglec-7 expressed on human primary monocytes, human primary macrophages, human primary dendritic cells, human primary neutrophils, and human primary natural killer (NK) cells. Cells were harvested, plated at 10⁶/ml in a 96 well plate, and incubated in 100 ul PBS containing 2% FBS, 2 mM EDTA and 10 μg/ml Mab and Fc blocking reagent for 1 hour in ice. Cells were washed twice and incubated in 100 ul PBS containing 2% FBS, 2 mM EDTA and 5 ug/ml PE-conjugated secondary antibody for 30 minutes on ice. Cells were washed twice in cold PBS and analyze by flow cytometry on a BD FACS Canto. Data analysis and calculation of MFI values was performed with FlowJo (TreeStar) software version 10.0.7.
(§4) Percent positive binding and mean fluorescent intensity (MFI) values for cell types bound by Siglec-7 antibodies are listed in Table 4A. Binding is compared to an isotype control. The antibodies bind to human primary monocytes, human primary dendritic cells, and human primary macrophages. In Table 4A, “Buffer” refers to cells that were treated only with the PBS buffer described supra; “Secondary Ab” refers to cells that were treated only with the PE-conjugated secondary antibody; “mIgG1,” “mIgG2a,” and “mIgG2b” refer to isotype control antibodies; and “RDS7” refers to commerically available anti-Siglec-7 antibody Mab1138 (R&D Systems; Cat. No. MAB 1138).

[4] = molecular target: T9, human Siglec-7 expressed on human cells …; assay: FACS, human primary monocytes, 10 ug/ml mAb
Experimental: as §3, §4

[5] = molecular target: T9, human Siglec-7 expressed on human cells …; assay: cell-based or functional assay
[6] = molecular target: T9, human Siglec-7 expressed on human cells …; assay: cell-based or functional assay; remark: listed apart in the source
[7] = molecular target: T10, Histidine-tagged human Siglec-7 (NovoProtein) (human, UniProt Q9Y286 19-357, limits assumed); assay: SPR (BiaCore T200, 25 C), antibody captured on anti-mouse IgG, Siglec-7-His 35 nM, single-concentration kinetics
T10 construct: Bought protein; also called purified Siglec-7-his tagged protein; not shown: histidine tag
T10 sequence (Q9Y286 19-357 limits assumed): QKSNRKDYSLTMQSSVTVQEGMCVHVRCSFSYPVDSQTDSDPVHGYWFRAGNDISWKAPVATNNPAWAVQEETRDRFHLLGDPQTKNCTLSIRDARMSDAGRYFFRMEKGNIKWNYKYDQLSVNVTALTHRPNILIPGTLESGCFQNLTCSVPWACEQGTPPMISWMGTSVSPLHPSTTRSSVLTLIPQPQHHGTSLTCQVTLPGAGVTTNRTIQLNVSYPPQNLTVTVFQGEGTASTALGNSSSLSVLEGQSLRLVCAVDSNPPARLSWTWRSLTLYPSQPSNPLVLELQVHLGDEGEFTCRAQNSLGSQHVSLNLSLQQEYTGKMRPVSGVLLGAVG
Experimental: SPR data was collected at a rate of 10 Hz at 25′ C on a BiaCore T200 instrument. Data analysis was performed using BiaCore T200 Evaluation Software, version 2.0. HBS-EP+ (100 mM HEPES, 1.5 M NaCl, 30 mM EDTA, 0.5% v/v Surfactant P20, pH 7.4) was used as running buffer and for preparing reagents.
Mouse-derived antibodies (25 nM) against Siglec-7 were captured (60 s contact time, 30 μL/min flow rate, 0 s stabilization time) on a CM5 sensor chip (GE Healthcare) immobilized with anti-mouse IgG. Histidine-tagged human Siglec-7 (NovoProtein) was then flowed over the captured anti-Siglec-7 surface (120 s contact time, 30 μL/min flow rate, 300 s dissociation time). Concentration of antigen ranged from 5 nM to 100 nM, depending on information obtained from an initial screen. Duplicate single-concentration trials were performed and bracketed by a blank (0 nM antigen) sample. The chip surface was regenerated in between cycles using 10 mM glycine-HCl, pH1.7 (60 s contact time, 30 μL/min flow rate, 60 s stabilization time). The resulting SPR signal was obtained as the difference in response from measurements performed on a blank flow cell.
Affinity constants (KD) were calculated from the ratio kd/kₐ. For one antibody (clone 1E8), we validated the single-concentration analysis with a multiple-concentration approach (five concentrations of antigen used, plus one blank).

[8] = molecular target: T11, Siglec-7-Fc (plate immobilized) (human, UniProt Q9Y286 19-357, limits assumed); assay: RBC solid adhesion assay, plate-coated Siglec-7-Fc, antibody 0.5 or 1.0 ug/ml; % of RBC binding without antibody
T11 construct: also called Siglec-7-Fc protein; immobilized Siglec-7; not shown: Fc part
T11 sequence (Q9Y286 19-357 limits assumed): as above
Method in brief: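 Plates coated overnight at RT with 5 μg/ml Siglec-7-Fc and blocked in PBS with BSA and 1 mM CaCl₂. Antibody (0.5 or 1.0 μg/ml) bound 1 h at RT, then RBCs (3.0×10⁶ cells/ml) added for 1 h at RT. Bound RBCs lysed and detected by peroxidase at 450 nm, expressed as % of binding without antibody.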

[9] = molecular target: T9, human Siglec-7 expressed on human cells …; assay: FACS, human primary macrophages, 10 ug/ml mAb
Experimental: as §3, §4

Chain of F48A (human) (Q9Y286 19-467 F48A limits assumed): as the sequence (Q9Y286 19-467 T107A limits assumed) above, with F30A, A89T counted along it
Chain of Y50A (human) (Q9Y286 19-467 Y50A limits assumed): as the sequence (Q9Y286 19-467 T107A limits assumed) above, with Y32A, A89T counted along it
Chain of T103A (human) (Q9Y286 19-467 T103A limits assumed): as the sequence (Q9Y286 19-467 T107A limits assumed) above, with T85A, A89T counted along it
Chain of V44A (human) (Q9Y286 19-467 V44A limits assumed): as the sequence (Q9Y286 19-467 T107A limits assumed) above, with V26A, A89T counted along it
Chain of M30A (human) (Q9Y286 19-467 M30A limits assumed): as the sequence (Q9Y286 19-467 T107A limits assumed) above, with M12A, A89T counted along it

B1: 10B5 Fab (Fab, V domains shown)
VH: QVHLQQSGPELVKPGASVKISCKASGYAFTNCWMNWVRQRPGKGLDWIGRIFPGNGHTNYSGKFKDKATLTEDKSSSTAYMQLSSLTSEDSAVYFCARDYSDYYFDYWGQGTTLTVSS
VL: DVQMTQTTSSLSASLGDRVTISCRASQDINTYLNWYQQKPDGTVKLLIYYTSRLHSGVPSRFSGSGSGTDYSLTISNLEQEDIATYFCQQGNTLPWTFGGGTKLEIK
Binding Reactivity (% WT) (M30A (human)): 20.1 % WT | Binding Reactivity (% WT) (T103A (human)): 6.3 % WT | Binding Reactivity (% WT) (F48A (human)): 13.9 % WT | Binding Reactivity (% WT) (V44A (human)): 13.3 % WT | Binding Reactivity (% WT) (Y50A (human)): 18.2 % WT | binding result (T107A [1]): no binding | Binding Reactivity (% WT) (N81A): 138 % WT | Binding Reactivity (% WT) (R124A): 81.1 % WT | Binding Reactivity (% WT) (S47A): 1.5 % WT | Binding Reactivity (% WT) (I72A): 92.8 % WT | Binding Reactivity (% WT) (R45A): 1.6 % WT | Binding Reactivity (% WT) (Q31A): 18.2 % WT | Binding Reactivity (% WT) (W74A): 79.8 % WT | Binding Reactivity (% WT) (T107A [2]): 0.4 % WT

B2: anti-Siglec-7 antibody 7F12 (antibody, V domains shown)
VH: QVQLQQSGSELRSPGSSVKLSCKDFDSEVFPITYMNWVRQKPGHGFEWIGDILPSIGRTMYGEKFEDKATLDADTVSNTAYLELNSLTSEDSAIYYCARSEGYLLAYWGQGTLVTVSA
VL: DVLMTQTPLSLPVSLGDQASISCRSSQSLVHSTGNTYLHWYLQKPGQSPKLLIYKVSNRFSGVPDRFSGSGAGTDFTLKISRVEAEDLGVYFCSQNTHVPYTFGGGTKLEIK
notes: Variable domains assembled from FR and CDR entries
% Positive [3]: 99.7% | MFI [3]: 5000 | % Positive [4]: 99.3% | MFI [4]: 472 | Percent Siglec-7 Surface Expression, DCs [5]: 96.9% | Percent Siglec-7 Surface Expression, Monocytes [5]: 39% | Percent Siglec-7 Surface Expression, U937 cells [5]: 86.3% | Percent Siglec-7 Surface Expression, Macrophages [6]: 13.1% | Percent Siglec-7 Surface Expression, Microglia [6]: 28.1% | Percent Siglec-7 Surface Expression, NK cells [6]: 124% | Kd [7]: 0.4 nM | Percent RBC Binding to Siglec-7 [8]: 7.9% | % Positive [9]: 99.3% | MFI [9]: 12300

— patent publication US20200277374A1 (Alector, published 2020)
